Assay results as given in the DeepSol protein solubility set.

Assay: soluble on expression in E. coli; label from the status in PepcDB or PDB records

Question: Which “soluble on expression in E. coli” value does the source give for “MELVVKSVAAASVKTATLVIPVGENRKLGAVAKAVDLASEGAISAVLKRGDLAGKPGQTLLLQNLQGLKAERVLLVGSGKDEALGDRTWRKLVASVAGVLKGLNGADAVLALDDVAVNNRDAHYGKYRLLAETLLDGEYVFDRFKSQKVEPRALKKVTLLADKAGQAEVERAVKHASAIATGMAFTRDLGNLPPNLCHPSFLAEQAKELGKAHKALKVEVLDEKKIKDLGMGAFYAVGQGSDQPPRLIVLNYQGGKKADKPFVLVGKGITFDTGGISLKPGAGMDEMKYDMCGAASVFGTLRAVLELQLPVNLVCLLACAENMPSGGATRPGDIVTTMSGQTVEILNTDAEGRLVLCDTLTYAERFKPQAVIDIATLTGACIVALGSHTTGLMGNNDDLVGQLLDAGKRADDRAWQLPLFDEYQEQLDSPFADMGNIGGPKAGTITAGCFLSRFAKAYNWAHMDIAGTAWISGGKDKGATGRPVPLLTQYLLDRAGA” here?
Answer: The value was “soluble”.

Question: Which “soluble on expression in E. coli” value does the source give for “MENDMKSLSAAAQACVKKMRDAKVNEACIRTFIAQHVMVSKGETGSIPDSAIMPVDSLDALDSLTIECDNAVLQSTVVLKLNGGLGTGMGLCDAKTLLEVKDGKTFLDFTALQVQYLRQHCSEHLRFMLMDSFNTSASTKSFLKARYPWLYQVFDSEVELMQNQVPKILQDTLEPAAWAENPAYEWAPPGHGDIYTALYGSGKLQELVEQGYRYMFVSNGDNLGATIDKRVLAYMEKEKIDFLMEVCRRTESDKKGGHLARQTVYVKGKDGQPDAEKRVLLLRESAQCPKADMESFQDINKYSFFNTNNLWIRLPVLLETMQEHGGTLPLPVIRNEKTVDSSNSASPKVYQLETAMGAAIAMFESASAIVVPRSRFAPVKTCADLLALRSDAYVVTDDFRLVLDDRCHGHPPVVDLDSAHYKMMNGFEKLVQHGVPSLVECKRVTVKGLVQFGAGNVLTGTVTIENTDSASAFVIPDGAKLNDTTASPQQSTNKMRPLEHHHHHH” here?
Answer: Its value is “soluble”.

Question: Which “soluble on expression in E. coli” value does the source give for “MENFEIWVEKYRPRTLDEVVGQDEVIQRLKGYVERKNIPHLLFSGPPGTGKTATAIALARDLFGENWRDNFIEMNASDERGIDVVRHKIKEFARTAPIGGAPFKIIFLDEADALTADAQAALRRTMEMYSKSCRFILSCNYVSRIIEPIQSRCAVFRFKPVPKEAMKKRLLEICEKEGVKITEDGLEALIYISGGDFRKAINALQGAAAIGEVVDADTIYQITATARPEEMTELIQTALKGNFMEARELLDRLMVEYGMSGEDIVAQLFREIISMPIKDSLKVQLIDKLGEVDFRLTEGANERIQLDAYLAYLSTLAKK” here?
Answer: Its value is “soluble”.

Question: For “MENFLHKWFASEYDLYEEDLEKASALVNSHNIRTVVNVMFQHPIFTVNMMAALTSLPEATVRRYLNRFEEQQLIFSDGRMRSKTYYYYNLLDQLR”, which “soluble on expression in E. coli” value is on record?
Answer: The value was “not soluble”.

Question: For “MENHDLVIVGGGISGLQAAISAKKSGVQDIVLIEAEDSLGGILNQCIYTGFGMEDFKEELTGTEYVQRFIDEFLELNIEYKLNTTVIKISKNKVITAVSPNEGIIEIKACSIIFAAGAVEKPQKSIRVLTKDLSGIYSALTVGRFINIHGYMPGKSIVILGANKIGNALANRIFIEGGKVKAVIDSEVGFDERNEIIEFLAEINIPFLYNYNIVKIKGSERIEGIYISDENGEKFISCDTLILALKLNPNDKILREANIKILNKERNEINTNVPGVFIVGNALYIHESNEGSPLENRKAGEMSAEYIRATLLEHHHHHH”, which “soluble on expression in E. coli” value is on record?
Answer: Its value is “not soluble”.

Question: For “MENIMKITIINGSPRFKKSNSEILKNYLLNFIKENEINEFFSFSIKLDDDIKTDIYNSDILIFIFPLYVDSIPANLLDLLVRFEDENVINSKTKIYCIVNNGFFEGVQNHLAISQIRCWSKKVNAQWGQGIGVGGGELLSHLKKVPLGQGPLKNLGIILEKFSKNILSLKGDEDIYINPNYPKILYFLQANISWFIEGRKNKLKFRDLFKKILEHHHHHH”, which “soluble on expression in E. coli” value is on record?
Answer: The value was “not soluble”.

Question: Which “soluble on expression in E. coli” value does the source give for “MENKIQELTDKIYREGVEKGNEEAQRLIANAQEEAKKIIEDARKEADSIVAASRKSADELADNTKSELKLFSGQAVNALKSEIATMVTDKLITASVKDFAQDKDYLNAFIVALASKWSVDEPIVISTADAESLKKYFAAHAKALLDKGVTIEQVNGIKTLFTVSPADGSYKVNFGEEEFMNYFKAFLRPQLVEMLF” here?
Answer: Its value is “not soluble”.

Question: With “MENKTIQLFGNITGGPIELHSQTGSRRRRDTVENAGKSAWDTAGDVGKSVIDTVENAGAAVKNGASDLDEKLMGSG” as the sequence, how does the “soluble on expression in E. coli” value read?
Answer: The value was “not soluble”.

Question: Which “soluble on expression in E. coli” value does the source give for “MENKTLDHTLQGAPLWLTNFVLVYQKLSKENLQLLATIYHENVTFIDPLHTVEGFDDLYQYFENLYQNLSACDFVIEEVIWQDSQASLFWTMTYQHPKLNKGKMVTVVGTSHIKGEGDKVIYHRDFLDLGAMLYEQLPILGKLTKWIKTKAAN” here?
Answer: Its value is “not soluble”.

Question: With “MENLKNIQPREDFNWEEFEAGGVHAAVSRQEQEAAYDKTLNTIKEKEVVMGRVTAINKREVVINVGYKSEGVVPATEFRYNPELKVGDEVEVYIENQEDKKGQLVLSHRKARAARSWERVNEALEKDEIVKGYVKCRTKGGMIVDVFGIEAFLPGSQIDVRPIRDYDAFVEKTMEFKIVKINQEYKNVVVSHKVLIEAELEQQKKEII” as the sequence, how does the “soluble on expression in E. coli” value read?
Answer: The value was “not soluble”.

Question: Which “soluble on expression in E. coli” value does the source give for “MEPIWRNYPYPTYPGHHNFQFDPLLSDGSHTGVNQLGGVFVNGRPLADTVRAQIVEMSQHGTRPCDISRQLKVSHGCVSKILGRYYSTGSVRPGVIGGSKPKVATPRVVECIAGYKRANPTMFAWEIRQKLIEDQICGEENVPSVSSINRIVRNKSFMAQLAAPTSVTSSAARPSSATSHHQRSPPRGVQQHMQQSTSVQQLQQLQLTSAATVNSLMTPPAFAMPGTAYSINGLLGTLPQPSLLDDKFTNLSTQSADMSLVYSTGLVGEHDWTMRTPMVILPQNYCGQL” here?
Answer: Its value is “not soluble”.

Question: With “MEPKRSRLVVCAPEPSHAREFPDVAVFSGGRANASQAERLARAVGRVLADRGVTGGARVRLTMANCADGPTLVQINLQVGDTPLRAQAATAGIDDLRPALIRLDRQIVRASAQWCPRPWPDRPRRRLTTPAEALVTRRKPVVLRRATPLQAIAAMDAMDYDVHLFTDAETGEDAVVYRAGPSGLRLARQHHVFPPGWSRCRAPAGPPVPLIVNSRPTPVLTEAAAVDRAREHGLPFLFFTDQATGRGQLLYSRYDGNLGLITPTGDGVADGLA” as the sequence, how does the “soluble on expression in E. coli” value read?
Answer: Its value is “soluble”.

Question: With “MEPPLTVGAWTMTADSTVTEPIAAAATTTIVADVAIVGGGLAGSLAAAVLARAGHRVALVDKRAVYPDEFRVEKIGGPQLEMFRRLGFIRGLASVACPYDQVLNVREGKVVDVSVGQAYGLPYAGLVAMARGQIPDPSSLIVDEVTAVTCSDDVQHLELASGRRLNARLVVLATGMAGALGYKLGIRRRVLAAGHSVSFGFTIVRRDGTPFDFKALTCYGERTSDGVDYLSLFPVPAGMRANLFMFRDPTDPVMRDLRRDTEATVLRLLPGLQPYLGDFRVTDRVQNWVMDLSVVEGHLQPGVVLIGDAFQTNCPAAGTGVARLLVDVERLCTEYAPRWLATEGMGKEKISEFYSDRDKIAADQQSLKMARFRQALTSRDDISWDVRRRLHFLRRSITHRVDQMRPGWLAQVRSALRALEHHHHHH” as the sequence, how does the “soluble on expression in E. coli” value read?
Answer: The value was “not soluble”.

Question: With “MEPPSSRPEEPPSWEDLYKINLMPSELFLKFRKELQGLRVGVNLELYNEPTNDYHAKLVLKPLCPERKWKFIYEPLHQEVRVLSKKIPVTRFLNLQVGVGHNFQMNAIGWKWKLTSCLGGDGVSRIRNKTTLGLSPGIDFRFGWRADFVLPEVTGALGTEEPLFNMSSGRLEASLDRVEAIVTHSDYL” as the sequence, how does the “soluble on expression in E. coli” value read?
Answer: Its value is “soluble”.

Question: For “MEPTGLMVAAPTASLPEAIGGERNWDYRFTWIRDTAYVIEALSSIGYKYEATEFLYDMMDMITRDNRIRTIYSIDDSNDLEERIIDYEGYRGSRPVRIGNKAVDQLQIDQYGSIVRAIHSMAKAGGIVNSYLWDFVEQVMAKIEYLWKYPDSSIWEFRTEPKQYVYSKVMSWAAFDSAISMAKDLGLSAPIKQWKSIQDEIKKEVLEKGFDTDTNSFVQYYGSKNIDAALLRLPILGFIPANDEKFLGTLSRIEKELMVDGYLFKRYREDDGLKGDEGSFLMLTFWYIEDLILMKRLKKAREVLESVLEKANHLGLYSEEIDEKSGDFLGNFPQALSHLGVIRVAPKLEEALLKRTSKINSLEHHHHHH”, which “soluble on expression in E. coli” value is on record?
Answer: Its value is “not soluble”.

Question: With “MEQKQRRFTKNIFVLDVTAKTLCGAIAKLSSQPYCQIKIGRVVAFKPVKNPEPKGYVLNVPGPGAYRIQDGQDIISLMLTPHGVEATTERWEEWKFEGVSVTPMATRVQYNGVMVDAEIKYCKGMGIVQPYMRNDFDRNEMPDLPGVMRSNYDIRELRQKIKNERESAPRLQVHSVARPGSENLYPQ” as the sequence, how does the “soluble on expression in E. coli” value read?
Answer: Its value is “soluble”.

Question: For “MEQLNICIDIDGTITDAYYWIDLCNSYFKTSITEKDATQYYIHKILNVPLEEYNEFYEKYKYKLHSEQKLRKDVKSVITKLSQNNNIFFVTARERDLTILTYSYLRKKEIPYDSLFILGTHHKVPTARQLNCDLFIEDNYDNALELSKAGFKVLLIDTYYNRKPLNQNIIRFYNWDEVYGIVDRLFEKSEAI”, which “soluble on expression in E. coli” value is on record?
Answer: The value was “not soluble”.

Question: For “MEQLNKMAPKDVRALIREGKINGPTAGMSGGYAQANLVVLKKDLAFDFLLFCQRNQKPCPVLDVTEAGSPVPSLLRRMLISRTDFPKYRIYRHGILTEEVSDITPYWEDDFVGFLIGCSFSFEQALINNGIAVRHIDEGTNVSMYKTNIDCFPVGAFHGQMVVSMRPVPERLAVRAAQVTSRFPAVHGGPIHIGNPGAIGIRDLGKPDFGDAVSIRDGEVPVFWACGVTPQAVAMNVKPEMVITHAPGHMLITDIRDESLAVLLEHHHHHH”, which “soluble on expression in E. coli” value is on record?
Answer: Its value is “soluble”.

Question: With “MERAPLLELKGIRKRFGELEVLRGVDLALYPGEILALLGPSGCGKTTLLRVVAGLEVPDAGRVFLEGRDITALPPEKRGIGFVFQDYALFPHLTALGNVAFGLKGKDRLARARKALERVGMTLFQDRRPGELSGGQQQRVALARALAPGPKLVLLDEPFSSLDAGLRAATREEVRKVLKETGTAALLVTHDQEEALSFADRLGVMRGGEILQVGTPEEVYLRPKTPFVAQFLGRTNLLPGEGRGRYAETCLGRVPLAEAREGPLLLSLRPEALRLTPPGQGPQGEVVAREFKGHDLTYRVRLHGVQPEREVLVQEGPTCPFKVGDRVGLEVVGEGVALEGTPPAPVRQEA” as the sequence, how does the “soluble on expression in E. coli” value read?
Answer: The value was “soluble”.

Question: With “MERIAFVYMGGDEFKWLFFEVYDRVRRFMKDVNLGIIPIYAGKIKLPPGMLVRVNAGNGYIKMYPFEAVVEALYGKLVEMRDDVKDDTLTKIFGITTFPIGSRKQYFDIYKKYLGIQVSIGNYNVLALSIKPFYTENRELFVERVFKGVLHEIGHLYGLSHCKNDCVMNPPNDLKDWDRRAPSYCNSCLRELKRKVKPMPLLLHRAYECFHC” as the sequence, how does the “soluble on expression in E. coli” value read?
Answer: Its value is “not soluble”.

Question: Which “soluble on expression in E. coli” value does the source give for “MERKHHFVLVHNAYHGAWIWYKLKPLLESAGHRVTAVELAASGIDPRPIQAVETVDEYSKPLIETLKSLPENEEVILVGFSFGGINIALAADIFPAKIKVLVFLNAFLPDTTHVPSHVLDKYMEMPGGLGDCEFSSHETRNGTMSLLKMGPKFMKARLYQNCPIEDYELAKMLHRQGSFFTEDLSKKEKFSEEGYGSVQRVYVMSSEDKAIPCDFIRWMIDNFNVSKVYEIDGGDHMVMLSKPQKLFDSLSAIATDYM” here?
Answer: The value was “soluble”.

Question: With “MERPLARNEVTRLGPDSKFHHAGLRRGLSPATLRKLDAISRLRVFPRDAVVVPQGGALEYVGNVVRGVLRMERLLSDGRSQIVGLLVPTDMFGRVFSERSDYSVEAATEVTLCCFERHAFEALVRTCPDLEHAVLLAVLDELDAAREWITLRAGPTVAARLATYLLMLCRRWPHQTSELTQDAKRIVVNVPIARNDLAHYLGTTVESISRAVQAFSRDGIISILTPLRFEILDLPALIALSDNEEFDAHALLEGLREEQRVSP” as the sequence, how does the “soluble on expression in E. coli” value read?
Answer: Its value is “not soluble”.
